{"source": "patent US20220332804A1", "about": "(CSL INNOVATION, published 2022)", "experiment_in_all_cases": "SPR, antibody captured, C2 as analyte;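 further: biacore SPR at 37 °C, anti-C2 mAbs captured via goat anti-human IgG on CM5 chips, double-referenced sensorgrams fit to a 1:1 kinetic or steady-state model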", "key": {"human C2 L706A": {"target": "T1, human C2 L706A (human, UniProt P06681 21-752)", "T1 sequence": "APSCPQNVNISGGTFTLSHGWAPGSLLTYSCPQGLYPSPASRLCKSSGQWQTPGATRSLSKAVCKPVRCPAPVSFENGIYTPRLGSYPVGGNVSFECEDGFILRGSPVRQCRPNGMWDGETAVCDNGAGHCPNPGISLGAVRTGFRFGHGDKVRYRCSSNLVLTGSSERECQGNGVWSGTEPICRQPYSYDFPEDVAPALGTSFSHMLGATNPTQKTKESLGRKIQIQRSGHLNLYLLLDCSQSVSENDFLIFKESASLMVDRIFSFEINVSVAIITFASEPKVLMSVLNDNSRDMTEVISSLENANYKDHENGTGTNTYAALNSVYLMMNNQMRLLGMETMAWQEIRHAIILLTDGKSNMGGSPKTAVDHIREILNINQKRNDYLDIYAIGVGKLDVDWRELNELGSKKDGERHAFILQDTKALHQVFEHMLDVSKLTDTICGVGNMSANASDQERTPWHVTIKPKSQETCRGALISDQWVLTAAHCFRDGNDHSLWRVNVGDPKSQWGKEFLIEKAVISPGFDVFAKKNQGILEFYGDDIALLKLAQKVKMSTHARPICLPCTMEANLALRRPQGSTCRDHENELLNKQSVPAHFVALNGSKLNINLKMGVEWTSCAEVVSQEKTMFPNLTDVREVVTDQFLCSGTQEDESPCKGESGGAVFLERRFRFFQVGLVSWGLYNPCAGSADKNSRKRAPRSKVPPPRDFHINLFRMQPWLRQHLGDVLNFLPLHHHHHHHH"}, "human C2 P723A": {"target": "T2, human C2 P723A (human, UniProt P06681 21-752)", "T2 sequence": "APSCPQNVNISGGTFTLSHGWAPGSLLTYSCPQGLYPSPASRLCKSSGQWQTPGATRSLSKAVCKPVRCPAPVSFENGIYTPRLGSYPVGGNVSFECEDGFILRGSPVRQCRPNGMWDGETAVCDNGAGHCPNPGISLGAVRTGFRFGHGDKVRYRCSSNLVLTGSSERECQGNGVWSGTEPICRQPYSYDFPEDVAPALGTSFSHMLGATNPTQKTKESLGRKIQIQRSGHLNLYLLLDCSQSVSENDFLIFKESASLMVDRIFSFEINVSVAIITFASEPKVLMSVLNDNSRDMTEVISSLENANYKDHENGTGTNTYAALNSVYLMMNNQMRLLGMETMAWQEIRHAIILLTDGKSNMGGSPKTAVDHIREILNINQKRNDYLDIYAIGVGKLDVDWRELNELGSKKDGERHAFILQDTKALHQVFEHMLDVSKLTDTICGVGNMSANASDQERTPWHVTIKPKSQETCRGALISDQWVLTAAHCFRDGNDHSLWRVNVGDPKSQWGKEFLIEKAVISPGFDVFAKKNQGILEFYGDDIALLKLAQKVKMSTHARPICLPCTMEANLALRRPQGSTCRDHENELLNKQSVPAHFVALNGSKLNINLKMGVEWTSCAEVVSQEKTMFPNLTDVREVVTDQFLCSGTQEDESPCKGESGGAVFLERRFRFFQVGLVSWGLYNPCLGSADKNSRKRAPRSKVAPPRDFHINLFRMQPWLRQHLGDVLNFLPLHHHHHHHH"}, "human C2 A444S": {"target": "T3, human C2 A444S (human, UniProt P06681 21-752)", "T3 sequence": "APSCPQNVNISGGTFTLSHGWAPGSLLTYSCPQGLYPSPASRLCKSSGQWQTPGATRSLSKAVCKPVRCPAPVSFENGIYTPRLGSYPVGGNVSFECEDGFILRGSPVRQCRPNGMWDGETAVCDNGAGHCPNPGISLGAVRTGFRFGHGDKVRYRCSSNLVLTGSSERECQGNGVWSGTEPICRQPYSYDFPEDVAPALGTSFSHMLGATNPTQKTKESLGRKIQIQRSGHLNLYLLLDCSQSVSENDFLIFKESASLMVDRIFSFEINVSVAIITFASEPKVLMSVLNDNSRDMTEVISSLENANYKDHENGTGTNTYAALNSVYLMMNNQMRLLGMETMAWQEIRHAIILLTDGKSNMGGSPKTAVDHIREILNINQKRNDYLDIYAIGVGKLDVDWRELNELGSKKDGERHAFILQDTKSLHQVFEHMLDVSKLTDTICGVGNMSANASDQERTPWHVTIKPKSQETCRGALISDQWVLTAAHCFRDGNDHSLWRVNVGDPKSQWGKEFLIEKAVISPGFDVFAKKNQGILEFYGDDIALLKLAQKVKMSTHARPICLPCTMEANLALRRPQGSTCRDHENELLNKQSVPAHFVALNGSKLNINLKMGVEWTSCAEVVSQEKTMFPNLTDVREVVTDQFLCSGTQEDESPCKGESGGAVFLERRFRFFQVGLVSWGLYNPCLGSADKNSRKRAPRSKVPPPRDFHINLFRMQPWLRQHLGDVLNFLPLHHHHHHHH"}, "human C2 Q447A": {"target": "T4, human C2 Q447A (human, UniProt P06681 21-752)", "T4 sequence": "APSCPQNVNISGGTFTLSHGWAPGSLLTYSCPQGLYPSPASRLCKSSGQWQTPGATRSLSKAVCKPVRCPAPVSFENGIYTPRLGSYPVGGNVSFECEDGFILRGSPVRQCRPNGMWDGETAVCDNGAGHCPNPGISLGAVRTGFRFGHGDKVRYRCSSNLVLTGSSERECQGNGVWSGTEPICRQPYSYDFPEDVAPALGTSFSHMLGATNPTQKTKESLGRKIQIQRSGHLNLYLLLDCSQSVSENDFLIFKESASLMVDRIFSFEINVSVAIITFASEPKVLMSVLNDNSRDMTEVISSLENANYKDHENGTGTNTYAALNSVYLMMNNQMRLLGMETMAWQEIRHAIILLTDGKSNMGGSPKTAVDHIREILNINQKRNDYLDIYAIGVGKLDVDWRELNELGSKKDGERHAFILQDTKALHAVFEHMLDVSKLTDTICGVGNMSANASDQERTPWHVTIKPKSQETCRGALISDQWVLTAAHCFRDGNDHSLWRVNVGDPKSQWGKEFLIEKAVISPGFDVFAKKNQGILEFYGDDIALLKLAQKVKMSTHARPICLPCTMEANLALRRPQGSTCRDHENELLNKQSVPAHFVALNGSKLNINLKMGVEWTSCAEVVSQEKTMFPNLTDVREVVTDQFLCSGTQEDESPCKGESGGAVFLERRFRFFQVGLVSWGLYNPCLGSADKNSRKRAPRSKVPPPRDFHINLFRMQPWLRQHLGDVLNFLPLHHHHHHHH"}}, "data": [{"binder": "RF16-226 (antibody, human IgG4 S228P, lambda, pH-dependent anti-C2 antibody from a phage display library; also called WT) heavy: not shown light: SYELTQPPSVSVSPGQTARITCSGDALTSKYVAWYQQKSGLAPLLVIYEDTRRPSGIPAKFSGSSSGSVATLTISGAHGDDEADYYCYSTDASGHQRVFGGGTKLTVLSQPKAAPSVTLFPPSSEELQANKATLVCLISDFYPGAVTVAWKADGSPVKAGVETTKPSKQSNNKYAASSYLSLTPEQWKSHRSYSCQVTHEGSTVEKTVAPTECS", "values": [{"measurement": "Kd", "setting": "human C2 L706A", "result": 0.229, "unit": "µM"}, {"measurement": "Kd", "setting": "human C2 P723A", "result": 0.122, "unit": "µM"}, {"measurement": "Kd", "setting": "human C2 A444S", "result": 0.0198, "unit": "µM"}, {"measurement": "Kd", "setting": "human C2 Q447A", "result": 0.0054, "unit": "µM"}]}]}
